For test [1], the target named is T1, human CD28 (human, UniProt P10747 19-220). Description: cell-based or functional assay.
The target of test [2] is T1, human CD28. In words: cell-based or functional assay. The source holds these as a separate data set.

B1: 1h-75 (other)
VL: DIQMTQSPSSLSASVGDRVTITCRASQYIGTRLSWYQQKPGKAPKLLIYNASFLQSGVPSRFSGSGSGTDFTLTISSLQPEDFATYYCQQLALSPLTFGQGTKVEIKR
B1: the “Luciferase assay (EC50)” value with human CD28 [1] was 5.7 µM.

B2: 1h-239-8 40K linear PEG (other)
VL: DIQMTQSPSSLSASVGDRVTITCRASQSIYPFLEWYQQKPGKAPKLLIYFTSRLQSGVPSRFSGSGSGTDFTLTISSLQPEDFATYYCLQNVTNPATFSQGTKVEIKR
modifications: 40K linear PEG; site of attachment not stated
In the case of B2, in the test with human CD28 [2], the “DC-MLR Assay (EC50 nM)” value is 285 nM and the “Luciferase assay (EC50 nM)” value is 510 nM.

B3: 1h-79-1 (other)
VL: DIQMTQSPSSLSASVGDRVTITCRASQPIGHSFGWYQQKPGKAPKLLIYWASTLQSGVPTRFSGSGSGTDFTLTISSLQPEDFATYYCQQMLRTPFTFGQGTKVEIKR
Take B3: in the test with human CD28 [1], the “Luciferase assay (EC50)” value worked out at 418 µM and the “MLR assay (EC50)” value was 2.1 µM.

B4: 1h-79-26 (other)
VL: DIQMTQSPSSLSASVGDRVTITCRASQPIGHSLGWYQQKPGKAPKLLIYWASMLQSGVPSRFSGSGSGTDFTLTISSLQPEDFATYYCQQMLRTPFSFGQGTKVEIKR
For the molecule B4, in the test with human CD28 [1], the “Luciferase assay (EC50)” value is 0.062 µM and the “MLR assay (EC50)” value was 0.038 µM.

B5: 1h-79-1520 (other)
VL: DIQMTQSPSSLSASVGDRVAITCRASQPIGHSLGWYEQKPGKAPKLLIYWSSVLISGVPSRFSGSGSGTDFTLTISSLQPEDFATYYCQQMLRTPFTFGQGTKVEIKR
In the case of B5, in the test with human CD28 [1], the “Luciferase assay (EC50)” value came to 0.113 µM and the “MLR assay (EC50)” value worked out at 0.068 µM.

B6: 1h-79-8 (other)
VL: DIQMTQSPSSLSASVGDRVTITCRASQPIGHSLGWYQQKPGKAPKLLIYWASTLQSGVPSRFSGSGSGTDFTLTISSLQPEDFATYYCQQMLRTPFMFGQGTKVEIKR
For B6, the “Luciferase assay (EC50)” value with human CD28 [1] amounted to 0.24 µM.

B7: 1h-79-15 (other)
VL: DIQMTQSPSSLSASVGDRVTITCRASQPIGHSLGWYQQKPGKAPKLLIYWASTLQSGVPSRFSGSGSGTDFTITISSLQPEDFATYYCQQMLRTPFTFGQGTKVEIKR
Take B7: in the test with human CD28 [1], the “Luciferase assay (EC50)” value is 0.04 µM and the “MLR assay (EC50)” value stood at 0.268 µM.

B8: 1h-79-802 (other)
VL: DIQMTQSPSSLSASVGDRVTITCRASTPIGHSLGWYQQKPGKAPKLLIYWASTLQSGVPSRFSGSGSGTDFTLTISSLQPEDFATYYCQQMLRTPFMFGQGTKVEIKR
Take B8: in the test with human CD28 [1], the “Luciferase assay (EC50)” value worked out at 0.421 µM and the “MLR assay (EC50)” value was found to be 0.048 µM.

B9: 1h-79-20 (other)
VL: DIQMTQSPSSLSASVGDRVTVTCRASQPIGHSLAWYQQKPGKAPKLLIYWASMLQSGVPSRFSGSGSGTDFTLTISSLQPEDFATYYCQQMLRTPFTFGQGTKVEIKR
Regarding B9, the “Luciferase assay (EC50)” value with human CD28 [1] stood at 1.8 µM.

B10: 1h-79-2 (other)
VL: DTQMTQSPSSLSASVGDRVTITCRASRPIGHSLGWYQQKPGKAPKLLIYWASMLQSGVPSRFSGSGSGTDFTLTISSLQPEDFATYYCQQMLRTPFTFGQGTKVEIKR
As to B10, in the test with human CD28 [1], the “Luciferase assay (EC50)” value was determined as 0.166 µM.

B11: 1h-79-22 (other)
VL: DIQMTQSPSSLSASVGDRVTITCRASQPIGHSLAWYQQKPGKAPKLLIYWASMLQSGVPSRFSGSGSGTDFTLTISSLQPEDFATYYCQQMLRTPFSFGQGTKVEIKR
Take B11: the “Luciferase assay (EC50)” value with human CD28 [1] was determined as 0.75 µM.

B12: 1h-79-30 (other)
VL: DIQMTQSPSSLSASVGDRVTITCRASQPIGHSFGWYQQKPGKAPKLLIYWASMLQSGVPSRFSGSGSGTDFTLTISSLQPEDFATYYCQQMLRTPFSFGQGTKVEIKR
Turning to B12, in the test with human CD28 [1], the “Luciferase assay (EC50)” value stood at 0.224 µM and the “MLR assay (EC50)” value was found to be 0.126 µM.

B13: 1h-79-808 (other)
VL: DIQMTQSPSSLSASVGDRVTITCRASQPIGHALGWYQQKPGKAPRLLIYWASTLQSGVPSRFSGSGSGTDFTLTISSLQPEDFATYYCQQMLRTPFMFGQGTKVEIKR
Consider B13, for which, in the test with human CD28 [1], the “Luciferase assay (EC50)” value came to 0.56 µM.

B14: 1h-79-1505 (other)
VL: DIQMTQSPSSLSASVGDRVTITCRASQPIGHSLGWYQQKPGKAPKLLIYWGSWLQSGVPSRFSGSGSGTDFTLTISSLQPEDFATYYCQQMLRTPFTFGQGTKVEIKR
Take B14: in the test with human CD28 [1], the “Luciferase assay (EC50)” value came out at 0.103 µM.

B15: 1h-79-809 (other)
VL: DIQMTQSPSSLSASVGDRVTITCRASQAIGHSLGWYQQKPGKAPKLLVYWASTLQSGVPSRFSGSGSGTDFTLTISSLQPEDFATYYCQQMLRTPFMFGQGTKVEIKR
Turning to B15, in the test with human CD28 [1], the “Luciferase assay (EC50)” value is 0.592 µM.

B16: 1h-79-17 (other)
VL: DIQMTQSPSSLSASVGDRVTITCRASQPIGHSLAWYQQKPGKAPKLLIYWASTLQSGVPSRFSGSGSGTDFTLTISSLQPEDFATYYCQQMLRTPFAFGQGTKVEIKR
As for B16, in the test with human CD28 [1], the “Luciferase assay (EC50)” value turned out to be 2.5 µM.

B17: 1h-79-1519 (other)
VL: DIQMTQSPSSLSASVGDRVTITCRASQPIGHSLGWYQQKPGKAPKLLIYWASLLLDGVPSRFSGSGSGTDFTLTISSLQPEDFATYYCQQMLRTPFTFGQGTKVEIKR
Turning to B17, in the test with human CD28 [1], the “Luciferase assay (EC50)” value was 0.097 µM and the “MLR assay (EC50)” value was 0.037 µM.

B18: 1h-79-32 (other)
VL: DIQMTQSPSSLSASVGDRVTITCRASQPIGHSFGWYQQKPGKAPKLLIYWASMLQSGVPSRFSGSGSGTDFTLTISSLQPEDFATYYCQQMLRTPFAFGQGTKVEIKR
Take B18: the “Luciferase assay (EC50)” value with human CD28 [1] was 0.068 µM.

B19: 1h-79-31 (other)
VL: DIQMTQSPSSLSASVGDRVTITCRASQPIGHSFGWYQQKPGKAPKLLIYWASMLQSGVPSRFSGSGSGTDFTLTISSLQPEDFATYYCQQMLRTPFMFGQGTKVEIKR
Regarding B19, in the test with human CD28 [1], the “Luciferase assay (EC50)” value stood at 0.141 µM and the “MLR assay (EC50)” value worked out at 0.103 µM.

B20: 1h-79-28 (other)
VL: DIQMTQSPSSLSASVGDRVTITCRASQPIGHSLGWYQQKPGKAPKLLIYWASMLQSGVPSRFSGSGSGTDFTLTISSLQPEDFATYYCQQMLRTPFMFGQGTKVEIKR
Take B20: in the test with human CD28 [1], the “Luciferase assay (EC50)” value stood at 0.04 µM and the “MLR assay (EC50)” value came out at 0.109 µM.

B21: 1h-79-24 (other)
VL: DIQMTQSPSSLSASVGDRVTITCRASQPIGHSLGWYQQKPGKAPKLLIYWASTLQSGVPSRFSGSGSGTDFTLTISSLQPEDFATYYCQQMLRTPFAFGQGTKVEIKR
With B21, in the test with human CD28 [1], the “Luciferase assay (EC50)” value is 0.331 µM and the “MLR assay (EC50)” value is 0.295 µM.

B22: 1h-79-806 (other)
VL: DIQMTQSPSSLSASVGDRVTITCRASQPIGHSLGWYQQKPGKAPKLLIYWASMLQGGVPSRFSGSGSGTDFTLTISSLQPEDFATYYCQQMLRTPFMFGQGTKVEIKR
As for B22, in the test with human CD28 [1], the “Luciferase assay (EC50)” value was 0.04 µM and the “MLR assay (EC50)” value is 0.026 µM.

B23: 1h-79-21 (other)
VL: DIQMTQSPSSLSASVGDRVTITCRASQPIGHSFAWYQQKPGKAPKLLIYWASTLQSGVPSRFSGSGSGTDFTLTISSLQPEDFATYYCQQMLRTPFTFGQGTKVEIKR
B23: in the test with human CD28 [1], the “Luciferase assay (EC50)” value is 3 µM.

B24: 1h-79-1512 (other)
VL: DIQMTQSPSSLSASVGDRVTITCRASQPIGHSLGWYQQKPGKAPKLLIYWASVLLHGVPSRFSGSGSGTDFTLTISSLQPEDFATYYCQQMLRTPFTFGQGTKVEIKR
B24: in the test with human CD28 [1], the “Luciferase assay (EC50)” value came out at 0.019 µM and the “MLR assay (EC50)” value was 0.009 µM.

B25: 1h-79-807 (other)
VL: DIQMTQSPSSLSASVGDRVTITCRASQPIGHTLGWYQQKPGKAPKLLIYWASDLIRGVPSRFSGSGSGTDFTLTISSLQPEDFATYYCQQMLRTPFMFGQGTKVEIKR
Consider B25, for which, in the test with human CD28 [1], the “Luciferase assay (EC50)” value is 0.031 µM and the “MLR assay (EC50)” value was determined as 0.053 µM.

B26: 1h-79-29 (other)
VL: DIQMTQSPSSLSASVGDRVTITCRASQPIGHSLGWYQQKPGKAPKLLIYWASMLQSGVPSRFSGSGSGTDFTLTISSLQPEDFATYYCQQMLRTPFAFGQGTKVEIKR
Take B26: in the test with human CD28 [1], the “Luciferase assay (EC50)” value amounted to 0.043 µM and the “MLR assay (EC50)” value turned out to be 0.15 µM.

B27: 1h-99-2 40K linear PEG (other)
VH: EVQLLESGGGLVQPGGSLRLSCAASGFTFDSANMSWVRQAPGKGLEWVSWIEDTGTQTFYADSVKGRFTISRDNSKNTLYLQMNSLRAEDTAVYYCAKSPFGPLYGFDYRGQGTLVTVSS
modifications: 40K linear PEG; site of attachment not stated
Consider B27, for which, in the test with human CD28 [2], the “DC-MLR Assay (EC50 nM)” value was determined as 390 nM and the “Luciferase assay (EC50 nM)” value is 100 nM.

B28: 1h-99-2 40K branched PEG (other)
VH: EVQLLESGGGLVQPGGSLRLSCAASGFTFDSANMSWVRQAPGKGLEWVSWIEDTGTQTFYADSVKGRFTISRDNSKNTLYLQMNSLRAEDTAVYYCAKSPFGPLYGFDYRGQGTLVTVSS
modifications: 40K branched PEG; site of attachment not stated
As for B28, in the test with human CD28 [2], the “DC-MLR Assay (EC50 nM)” value turned out to be 383 nM and the “Luciferase assay (EC50 nM)” value came out at 117 nM.

B29: 1h-99-238 40K linear PEG (other)
VH: EVQLLESGGGLVQPGGSLRLSCAASGFTFDSANMSWARQAPGKGLEWVSWIEASGVQTFYADSVKGRFTISRDNSKNTLYLQMNSLRAEDTAVYYCAKSPFGPLYGFDYRGQGTLVTVSS
modifications: 40K linear PEG; site of attachment not stated
On to B29, for which, in the test with human CD28 [2], the “DC-MLR Assay (EC50 nM)” value was 29 nM and the “Luciferase assay (EC50 nM)” value is 4.5 nM.

B30: 1h-99-237 40K linear PEG (other)
VH: EVQLLESGGGLVQPGGSLRLSCAASGFTFDSANMSWARQAPGKGLEWVSWIEAPGVQTFYADSVRGRFTISRDNSKNTLYLQMNSLRAEDTAVYYCARSPFGPLYGFDYRGQGTLVTVSS
modifications: 40K linear PEG; site of attachment not stated
With B30, in the test with human CD28 [2], the “DC-MLR Assay (EC50 nM)” value came out at 2 nM.

B31: 1h-80-1 (other)
VL: DIQMTQSPSSLSASVGDRVTITCRASQRIGSNLAWYQQKPGRAPKLLIYWASLLQSGVPSRFSGSGSGTDFTLIISSLQPEDFATYYCQQTRSAPFAFGQGTKVEIKR
As to B31, in the test with human CD28 [1], the “Luciferase assay (EC50)” value is 0.366 µM and the “MLR assay (EC50)” value was 0.438 µM.

The values are drawn from patent publication US20130109846A1 (published 2013).
